According to publication PMC1540706 (2006):
Positions count from the first letter of the chain named. Names and notes keep the numbering of the source.

T1: human β2-appendage (700–937), side site mutant used for ITC (human, UniProt P63010 700-937)
T1 chain: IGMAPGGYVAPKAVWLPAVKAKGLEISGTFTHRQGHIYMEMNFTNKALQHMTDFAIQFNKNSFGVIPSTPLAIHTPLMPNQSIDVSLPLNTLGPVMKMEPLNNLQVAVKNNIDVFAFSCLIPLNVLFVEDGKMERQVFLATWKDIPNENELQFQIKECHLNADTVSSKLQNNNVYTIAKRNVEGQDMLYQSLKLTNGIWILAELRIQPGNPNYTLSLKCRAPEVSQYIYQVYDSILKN

B1: amphiphysin DNF 12mer peptide (peptide)
chain: SFFEDNFVPEIS
B2: human β2-appendage (700–937) used for ITC (domain or fragment)
chain: T1 chain with A116Y
B3: human β2-appendage (700–937), top site mutant used for ITC (domain or fragment)
chain: T1 chain with A116Y, Y189V
B4: 6× His human Eps15-MD (530–791) (domain or fragment)
chain: STSSSETANLNEHVEGQSNLESEPIHQESPARSSPELLPSGVTDENEVTTAVTEKVCSELDNNRHSKEEDPFNVDSSSLTGPVADTNLDFFQSDPFVGSDPFKDDPFGKIDPFGGDPFKGSDPFASDCFFRQSTDPFATSSTDPFSAANNSSITSVETLKHNDPFAPGGTVVAASDSATDPFASVFGNESFGGGFADFSTLSKVNNEDPFRSATSSSVSNVVITKNVFEETSVKSEDEPPALPPKIGTPTRPCPLPPGKRSI
B5: Eps15 P-short peptide (peptide)
peptide: SFGDGFADFSTL
B6: Epsin1-MD (protein)
chain: TGGKEESSLMDLADVFTTPAPPQASDPWGGPASVPTAVPVAAAASDPWGAPAVPPAADPWGGAAPTPASGDPWRPAAPTGPSVDPWGGTPAPAAGEGPTSDPWGSADGGAPVSGPPSSDPWAPAPAFSDPWGGSPAKPSSNGTAVGGFDTEPD
B7: β-arrestin P-long peptide (peptide)
peptide: DDDIVFEDFARQRLKGMKDD
B8: human β2-appendage (700–937) R879A used for ITC (domain or fragment)
chain: T1 chain with A116Y, R180A

Legend:
Assay in all cases: ITC
[1] = target: AP2 α-appendage appendage (Mus musculus, UniProt P17427)
Sequence of AP2 α-appendage appendage (P17427 701-938): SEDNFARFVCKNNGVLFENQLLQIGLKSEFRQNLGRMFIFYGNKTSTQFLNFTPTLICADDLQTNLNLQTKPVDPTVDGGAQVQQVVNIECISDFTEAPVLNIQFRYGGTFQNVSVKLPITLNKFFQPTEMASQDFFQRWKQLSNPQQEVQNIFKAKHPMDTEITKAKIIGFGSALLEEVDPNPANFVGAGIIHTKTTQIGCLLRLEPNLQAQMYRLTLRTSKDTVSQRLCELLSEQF

Epsin P1 = target: Epsin P1
ARH peptide = ARH peptide (UniProt Q5SW96)
Eps15 P-long peptide = Eps15 P-long peptide (UniProt P42566)
Epsin P4 = target: Epsin P4
epsinR peptide = epsinR peptide (UniProt Q14677)
[2] = target: B2
[3] = target: B3
[4] = target: T1, human β2-appendage (700–937), side site …
[5] = target: B8

Question: For B1, which Kd [1] is on record?
Answer: 2500 nM

Question: Which results are given for B2?
Answer: Kd (Epsin P1): 131 µM; Kd (ARH peptide): 4.7 µM; Kd (Eps15 P-long peptide): 12 µM; Kd (Epsin P4): 160 µM

Question: For B3, which Kd (epsinR peptide) is on record?
Answer: 77 µM

Question: Which results are given for B4?
Answer: Kd [2]: 18 µM; Kd [3]: 11 µM

Question: For B5, which Kd [3] is on record?
Answer: 59 µM

Question: With B6 as the binder, how does the Kd [2] read?
Answer: 35 µM

Question: Which Kd [4] does the source give for B7 here?
Answer: 1700 nM

Question: And the Kd [5]?
Answer: 170 nM

Question: B8 was tested. Which Kd (ARH peptide) did it give?
Answer: 5.5 µM
